In paper PMC8649778:

Biological target: APRc_(110–231)His, soluble domain of APRc fused to a C-terminal His tag (Rickettsia conorii) (UniProt Q92FY8)
Test: shift of migration in nonreducing SDS-PAGE with Western blot

Q: With “APRc_(110–231)His, soluble domain of APRc fused to a C-terminal His tag (from UniProt Q92FY8 110-231) (domain or fragment)” as the substance, how does the stoichiometry N read?
A: The stoichiometry N was 2.
